Legend:
Unr CSD78 (A756-K922) = biological target: T1, Unr CSD78 (A756-K922) (Drosophila, UniProt B7Z0E2 756-922); assay: NMR titration
T1 sequence (looked up): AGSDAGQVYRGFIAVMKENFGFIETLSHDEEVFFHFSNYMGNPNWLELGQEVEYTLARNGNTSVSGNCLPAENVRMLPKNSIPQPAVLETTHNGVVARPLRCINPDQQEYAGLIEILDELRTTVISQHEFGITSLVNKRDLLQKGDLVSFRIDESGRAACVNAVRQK

Unr CSD789 (A756-D990) = biological target: T2, Unr CSD789 (A756-D990) (Drosophila, UniProt B7Z0E2 756-990); assay: NMR titration
T2 sequence (looked up): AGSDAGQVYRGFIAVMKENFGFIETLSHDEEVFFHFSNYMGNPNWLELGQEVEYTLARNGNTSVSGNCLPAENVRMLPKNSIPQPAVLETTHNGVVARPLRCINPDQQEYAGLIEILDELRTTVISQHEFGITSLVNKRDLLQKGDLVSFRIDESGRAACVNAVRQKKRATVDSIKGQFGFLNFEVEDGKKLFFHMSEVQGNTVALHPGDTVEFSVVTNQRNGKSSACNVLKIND

B1: pAbp RRM3 (G176-A263) (domain or fragment)
chain: not shown
B1: binds (Unr CSD78 (A756-K922)); binds (Unr CSD789 (A756-D990)).

Reference: publication PMC9976900 (Nucleic Acids Research, 2022)
